Reference: US20090143241A1 (PENN STATE RESEARCH FOUNDATION, published 2009)
Where no end group is shown, it is not given here.

Legend:
[1] = biological target: T1, ClpXP protease (E. coli ClpX6 with ClpP14) (E. coli, UniProt P0A6H1 1-424; P0A6G7 15-207); test: continuous fluorimetric assay of GFP-tag proteolysis by ClpXP, with SspB
T1 construct: Purified recombinant proteins mixed in the assay; also called SspB-ClpXP (when SspB is added); not shown: N-terminal His6 tag from pET28a; C-terminal His6 tag from pQE70

[2] = biological target: T1, ClpXP protease (E. coli ClpX6 with …); test: GFP-tag proteolysis by ClpXP in the presence of SspB
[3] = biological target: T1, ClpXP protease (E. coli ClpX6 with …); test: continuous fluorimetric assay of GFP-tag proteolysis by ClpXP, no SspB
[4] = biological target: T1, ClpXP protease (E. coli ClpX6 with …); test: kinetic assays with purified peptides and E. coli proteins (GFP-tag proteolysis by ClpXP with SspB)
[5] = biological target: T1, ClpXP protease (E. coli ClpX6 with …); test: cell-based or functional assay
[6] = biological target: T1, ClpXP protease (E. coli ClpX6 with …); test: kinetic assays with purified peptides and E. coli proteins (GFP-tag proteolysis by ClpXP with SspB); uncompetitive model
[7] = biological target: T1, ClpXP protease (E. coli ClpX6 with …); test: GFP-tag proteolysis by ClpXP without SspB against with SspB

T1 sequence (P0A6H1 whole entry, chain 1 of 2): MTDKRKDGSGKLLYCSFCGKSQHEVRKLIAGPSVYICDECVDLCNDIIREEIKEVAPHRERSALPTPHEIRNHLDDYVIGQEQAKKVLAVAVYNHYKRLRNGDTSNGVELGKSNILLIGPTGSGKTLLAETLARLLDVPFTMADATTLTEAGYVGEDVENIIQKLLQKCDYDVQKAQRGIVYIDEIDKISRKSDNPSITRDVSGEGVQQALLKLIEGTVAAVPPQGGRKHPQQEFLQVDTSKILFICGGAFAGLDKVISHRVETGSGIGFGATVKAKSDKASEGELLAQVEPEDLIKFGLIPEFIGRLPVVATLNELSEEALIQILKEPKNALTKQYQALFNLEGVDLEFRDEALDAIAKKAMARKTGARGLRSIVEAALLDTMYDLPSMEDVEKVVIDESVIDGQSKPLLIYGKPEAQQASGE
T1 sequence (P0A6G7 15-207, chain 2 of 2): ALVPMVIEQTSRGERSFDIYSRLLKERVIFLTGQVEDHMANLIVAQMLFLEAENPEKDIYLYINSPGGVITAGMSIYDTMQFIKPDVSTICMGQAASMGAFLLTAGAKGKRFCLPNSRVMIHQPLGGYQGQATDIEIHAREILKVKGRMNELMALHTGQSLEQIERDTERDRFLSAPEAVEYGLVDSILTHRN

CRGGRPALRVVK (also: cyclized in vitro, ring type not given here) [cycXB, cyclic XB peptide [CRGGRPALRVVK] (Table 4)]
Ki [1]: 8 µM
Ki [2]: 8.1 µM
fold lower KI than the linear XB peptide [2]: 7 fold
Ki [3]: 6 µM

B1: linear XB peptide, CRGGRPALRVVK (peptide)
peptide: CRGGRPALRVVK
notes: The text calls XB the 11 C-terminal residues of E. coli SspB; also called linXB
Ki [1]: 64 µM
Ki [2]: 6.4 µM
Ki [4]: 56 µM
Ki [3]: > 1000 µM

B2: cyclic XB, RGGRPALRVVK (Table 6) (peptide)
peptide: RGGRPALRVVK
modifications: also: cyclized, ring type not given here
notes: possibly the same preparation as m6; also called cyclic XB peptide
fold lower KI than the linear XB peptide [2]: 7 fold
Ki [4]: 8 µM

SGWYGRRH (head-to-tail cyclized (cyclic peptide), also called cyclic IXP1) [IXP1, cyclic SGWYGRRH peptide]
half-life of λ O with ClpXP and 100 µM IXP1 [5]: 1.22 h
Ki [6]: 136 µM

SGWRVQGPL (head-to-tail cyclized (cyclic peptide), also called IXP4) [ICP2, cyclic SGWRVQGPL peptide]
Ki [1]: 21 µM
fold higher KI without SspB [7]: ≥ 10 fold
Ki [3]: > 1000 µM

B3: ICP1, cyclic SGSKGVLPL peptide (peptide)
peptide: SGSKGVLPL
modifications: head-to-tail cyclized (cyclic peptide)
notes: Chemically synthesized linear, circularized and HPLC purified; also called IXP3
Ki [1]: 25 µM
Ki [3]: 28 µM

B4: Con62, cyclic SGWPYKWM peptide (peptide)
peptide: SGWPYKWM
modifications: head-to-tail cyclized (cyclic peptide)
notes: Arbitrary cyclic peptide from the SGWX5 library, negative control; also called arbitrary cyclic peptide
Ki [3]: > 1000 µM
